Several values for one entry are separate records, joined by “and”; a condition that tells them apart may be missing. Equal entries are not always repeated. Where two headings read alike, the source gives them in different places.

The target of assay [1] is Native bovine (β, γ)-actin (bovine) (UniProt P60712). The assay is described as follows: TIRF microscopy, KD calculated from rate constants.
For assay [2] the target is unchanged. In words: single-filament TIRF microscopy.
For assay [3] the target is unchanged. The assay is described as follows: single-molecule / single-filament TIRF microscopy.
Assay [4] concerns the target WAVE1ΔN, minimal Arp2/3-activating fragment of human WAVE1 (PVCA) (human). The assay is described as follows: FRET or BRET.
Assay [5] shares this target. In words: FRET or BRET. This is another data set of the same source.

With “Capping protein lacking the last 23 amino acids of the β subunit (CPαβΔ23) (from UniProt P47753;P47757-2) (complex)”, the fold reduction of affinity against wild-type CP in assay [1] was 10 fold. Besides, in assay [2], the fold change of koff against wild-type CP was 3 fold. Also, the fold change of kon against wild-type CP in assay [3] was 3 fold.

Take “Atto540Q-quencher labeled Acanthamoeba castellani actin monomers (natural protein)”: the percent quenching of NPF donor fluorescence in assay [4] was 14%; in assay [5], 59% and 69%.

The record behind these values is paper doi:10.1101/2021.03.15.435411.
